Laboratory results from the Human Domainome abundance scans (Beltran et al. 2025).

B1: CD2-associated protein, residues 271 to 331; numbered along this chain, Q9Y5K6 (parent)
chain: KEYCRTLFAYEGTNEDELTFKEGEIIHLISKETGEAGWWRGELNGKEGVFPDNFAVQINEL

Variants of: B1
Test: abundance fitness (aPCA) (normalised: wild type 0, dead -1); higher = more abundant; growth selection in yeast, the domain comes from the species named
Settings: Homo sapiens

Abundance fitness of substitutions, site by site:
T6: D -0.963, E -0.698, F -0.889, G -0.528, H -0.695, I -0.5, K -0.607, L -0.88, M -0.474, N -0.926, P -0.605, Q -0.68, R -0.682, S -0.103, V -0.844, W -1.15, Y -0.621
L7: A -0.275, C -0.336, D -0.426, E -0.457, F -0.741, G -0.57, H -0.674, I -0.021, K -0.174, M -0.113, P -1.01, R -0.276, S -0.107, T -0.017, V -0.088, W -0.539, Y -0.762
F8: A 0.014, D -0.311, G 0.028, H -0.109, K 0.128, L -0.064, P -0.432, Q 0.074, R 0.12, V 0.004, W -0.139, Y -0.148
A9: C -0.129, D -0.011, E -0.09, F -0.469, G -0.283, H -0.076, I -0.542, K -0.077, L -0.599, M -0.291, N -0.013, P -0.084, Q -0.096, R -0.144, S 0.029, T -0.268, W -0.448, Y -0.309
Y10: A -0.686, C -0.659, E -0.592, F -0.182, G -0.544, H -0.373, I -0.846, K -0.167, L -0.744, N -0.831, P -0.79, Q -0.439, S -0.598, T -0.864, V -0.567, W -0.209
E11: A -0.234, C -0.256, D -0.122, F -0.151, G -0.384, H -0.151, I -0.164, K -0.095, L -0.377, M -0.254, P -0.745, Q -0.4, R -0.263, S -0.237, T -0.216, V -0.157, W -0.261, Y -0.19
G12: A 0.036, C -0.329, D -0.794, E -0.434, F -0.687, H -0.837, I -0.887, K -0.224, L -0.865, M -0.786, N -0.646, P -0.381, Q -0.513, S -0.113, T -0.425, V -1.1, W -0.471, Y -0.759
T13: A 0.066, C 0.038, D -0.185, E -0.042, F -0.416, G -0.018, H -0.197, I -0.183, K 0.108, L -0.082, N -0.078, P -0.594, Q 0.122, R 0.042, S -0.051, V -0.083, W -0.475, Y -0.257
N14: A -0.023, C 0.029, D -0.107, E -0.159, F -0.336, G -0.087, H -0.107, I -0.202, K -0.033, L -0.4, M -0.172, P -0.756, Q -0.012, R -0.061, S -0.024, T -0.041, V -0.421, W -0.239, Y -0.38
E15: A -0.072, C -0.123, D 0.027, F -0.43, G -0.107, H -0.004, I -0.281, K -0.268, L -0.208, M -0.23, N -0.184, P -0.027, R -0.12, S -0.138, T -0.27, V -0.329, W -0.343, Y -0.261
D16: A -0.061, C -0.128, E -0.018, F -0.002, G 0.051, H -0.008, I -0.699, K 0.026, L -0.091, M -0.194, N 0.014, P -0.738, Q -0.105, R -0.062, S -0.003, Y -0.072
E17: A -0.233, C -0.182, D -0.213, F -0.53, G -0.58, H -0.107, I -0.991, K -0.619, L -0.744, M -0.362, N -0.755, P -1.12, Q 0.049, R -0.483, S -0.259, T -0.428, V -0.497, W -0.855, Y -0.463
L18: A -0.485, C -0.913, D -0.739, F -0.685, G -0.889, H -0.843, I -0.513, K -0.744, M -0.335, N -0.761, Q -0.831, R -0.816, S -0.766, T -0.541, V -0.524, W -0.792
T19: A -0.249, C -0.287, D -0.499, E -0.696, F -0.592, G -0.431, H -0.252, I -0.693, K -0.436, L -0.814, M -0.598, N -0.153, Q -0.536, R -0.283, V -0.66, W -0.555, Y -0.422
F20: A -0.808, C -0.793, D -0.523, E -0.91, H -0.603, I -0.492, K -0.665, L -0.709, M -0.714, N -0.551, P -0.893, Q -0.629, S -0.564, T -0.854, W -0.887, Y -0.713
K21: A -0.023, C -0.16, E -0.015, F -0.42, G -0.027, H -0.107, I -0.265, L -0.203, M -0.202, N -0.019, P -0.242, Q -0.139, R -0.064, S -0.045, T -0.076, V -0.127, W -0.538, Y -0.37
E22: A -0.072, C -0.4, D -0.572, F -1.02, G -0.26, I -0.404, K 0.116, L -0.732, M -0.485, N -0.437, P -0.061, Q -0.081, R -0.209, S -0.119, T -0.25, V -0.171, W -1.13, Y -0.915
G23: A -0.727, C -0.45, E -0.564, F -0.863, H -0.644, I -0.613, K -0.646, L -0.941, M -0.958, N -0.106, P -0.892, Q -0.726, R -0.57, S -0.465, T -0.424, V -1.13, W -0.532, Y -1.09
E24: A -0.312, D -0.036, F -0.993, K -0.697, L -0.599, M -0.223, N -0.824, P -0.694, Q -0.14, R -0.782, S -0.461, T -0.286, V -0.318, W -0.827, Y -0.77
I25: C -0.485, D -0.285, E -0.471, F -0.302, G -0.602, H -0.448, K -0.35, M -0.064, N -0.451, P -0.794
